Experiment: soluble on expression in E. coli; label from the status in PepcDB or PDB records

Sequence	soluble on expression in E. coli
MRAVWVLGIDTSCDDTGVGLVRDGKVVVNLVASQVRLHEAFGGVVPELASREHLKALPLLVERALAEAGLRPKDLDLVAATRGPGLIGALLVGYTFAKGMAFALDRPFYAVHHLEGHIAAAWPEGLPPPFLALVASGGHTHLYEVLDLGRYRLLGATRDDAAGEAFDKVARLLGLGFPGGPEVERLAEEAEEAIPFPVPLRGQEGYDFSFSGLKTKALHLVEKGLPKAALAKGFQEAAIAHLAEVVLKAAKDTGHRVLLVAGGVAANRALQERFKEAGLEVHFPPRGLSQDNGAMIALAAWRRHQRGFPPSPLSLGATAYWPLEEA	soluble
MAHHHHHHMLSIRKCNIYDLLSMQQCNSINLPENYNLRYYFYHALSWPYLSQIAEDVNGKVCGYSLGKLEEDNEYKGHLTSVAVLKTYRKLKLAFYLILQTHQHLKDIYRANNICLHVRVSNNAALNLYYNLLNYKVNGIETQYYGNKENAYLMEHVFAR	not soluble
MLMNNNNVYSLNNFDFLARSFARMQAEGRPVDIQAVTGNMDEEHRDWFCKRYALYCQQATQAKRLELEH	not soluble
MKIGIIGATGRAGSRILEEAKNRGHEVTAIVRNAGKITQTHKDINILQKDIFDLTLSDLSDQNVVVDAYGISPDEAEKHVTSLDHLISVLNGTVSPRLLVVGGAASLQIDEDGNTLLESKGLREAPYYPTARAQAKQLEHLKSHQAEFSWTYISPSAMFEPGERTGDYQIGKDHLLFGSDGNSFISMEDYAIAVLDEIERPNHLNEHFTVAGKLEHHHHHH	soluble
MAAVTELPKMNQELAGAVREGLELKKVETTEKNVLPTKEDVAEEKQHVERIHEIEHFDSTKLHSTPVKEKIVLPSADDIKQEKQHLELTDKINNFPSENLKKTETIEKNVLPSPTDVAREKTLQMAASFDKSALHHVETIVSTDVRVTEAQ	soluble
MSLKIIVIGGGAAGMSAASKAKRVNPDSEVIVVESGSYVSYAECGIPYYLQGVVGHIEDLLHYPLSEFTEKRGIKVLLHTTVTRIDTLHSSVLLNNGDVLKYDRLIIATGSRPKPIDVISDRTISIRSLESAMRARNLIEKSKDVTIVGAGVLGVELASVLAESGKNVKVISKYDRVLPQLDEDIGKIFHEYFSSRIDVQKQSSLKSAEEDRGRVKITTSVDDHECDAVIYATGIIPNSEIAVEAGIKTGDRNAILTNGHMETSEPGVYAAGDVATVRNIVTGLDEMMPLAQIANKAGRVAGSNASNSEMVFPGALGTTLVKVFDYEVGFTGINESRAKALGIPYEKTLIKAKSRANYYPGKQDIYVKIIYGKNDKRLLGAQVIGTDGAAWRLNTIATAIFGGFKVSDLFYDDLGYTPPFGPVWDSIVIAGSVSMREGHHHHHH	soluble
MKVTLSVLKADIGSVGGHTLPSRKVLAKVEEVVREEVGRLLLDAYVFHIGDDIVLLLSHTRGVRNQEVHALAWKAFREGTEVAKAEGLYGAGQDLLKDAFTGNLHGLGPQVAEMEFTERPAEPFMVLAADKTEPGAFNLPLYLAFADPMYSSGLLLSPELRPGFRFRIMDLAQTERDSYIELDAPERLYDIATLLRDSHRFAIESIWSRKHGEQAAVVSTTRLRNIAGRYVGKDDPVAIVRTQKIFPATEEFGPVFALAPYVAGDTRGSHHMPLMPVRANTPASTFFCVPMVCGLAFSLREGRLSEPVDLFADPVWEAVRAKVVEKAQEMRRQGFYGPAMLPMEELEYTGIAERLKALEREFS	soluble
MEDEHSRQAYVDQLGLLEEGADEVFEEILAAATSYFQTPIALISILDHQRQWFRASIGLDIRQTPRRDSFCAYAILGKGVFEVADATLDPRFRDNPYVQGEPRIRFYAGAPLATAEGLNLGSLCVIDREPRGPLAERDVAMLEHFARLVMARIHTLRSTNYIDEPTGLYNRLRLQEDVSLRLQRDGALTVIAADLLPLALLNTIIRTLGYPFSNDLMLEARDRIRAELPDFTLYKISPTRFGLLLPRQQQEETESVCLRLLRAFESPVVCRGIPIKANVGLGVLPLADDTLDGDQDWLRLVVSAADDARDRGVGWARYNPPLDQAQQRAFTLLTSLSQAIGTEEGFHLVYQPKIDLPTGRCTGVEALLRWRHPQLGFVSPAEFVPLAEKTALMRPLSDWVLRHAMAQLAQWNARNIPLRLAINVSASDMEDSSFLEEAVRLAKTYDIDLSALELEFTESVLIRDASAVGSVLLRARELGMGIAVDDFGTGYSNWTYLRDLPITAIKLDQSFTRDLAGSPKAQSVTQAVIGLASQLGYRVVAEGIETHDTFHLLQAWGCHEGQGYLIAQPMLPEQLEDWLRRLEHHHHHH	not soluble
SLPERGKTETADGEVFLQWLRQSVTDGMLSVNESDSVLHILARFVFVASPDVFYKYTSSAGDAVQDKKQLQKSFEALSVHHSRNGKGLYHYHKYDAPDKSGGFIKVSGYMIETNLIFRKGSCPSDSIWLSPRS	soluble
MFQGCYGGTQKHEPDLHIVLERAWQQGLQKVIVTAGCLKDVDEALELASKDERIYTTVGTHPTRCEEFVPDPEGYYDQLRSRIKANRTKVRAVGECGLDYDRLHFCAQETQRLYFEKQLDLAAEFKLPLFLHMRNAAEDFMGILERNRNKIEECGGGVVHSFTGTLEEAQRILAFGGLYIGFNGCSLKTDENAEVVRKLPNDRIMLETDCPWCGIRPSHAGHKHVTTKFPTVKKKEKWTAESLIDGRCEPCQISQVLESIAGIKQEPKEQLAALYYQNTLDLFFGTGESKELEHHHHHH	not soluble
MQVMFYSPSGQKLFGENGSPAFLLKGGITDLKGAIEARTTVIPEVPGQVFDGVTIKPFTFGVTMVVYPTKEMPMEKAMRKTRQIFSAFDYSTCRIDGTGIPVGLKVRLDSIISAPSQDTAKEIAEEITITLAADEGIFWADRKEASGKIDIVNYGDCDLWPEYRWQKTTTITLPSGAKINLPETPTPRVLRTTRHQVSITDLDGKPDRELLKKLGTVWPEGVPRKETKTYEITQNGYIMWRIGYLDPWGL	not soluble
MGSDKIHHHHHHMSSSQQIAKNARKAGNILKTISNEGRSDILYKIHDALKANAHAIEEANKIDLAVAKETGLADSLLKRLDLFKGDKFEVMLQGIKDVAELEDPVGKVKMARELDDGLTLYQVTAPVGVLLVIFESRPEVIANITALSIKSGNAAILKGGKESVNTFREMAKIVNDTIAQFQSETGVPVGSVQLIETRQDVSDLLDQDEYIDLVVPRGSNALVRKIKDTTKIPVLGHADGICSIYLDEDADLIKAKRISLDAKTNYPAGCNAMETLLINPKFSKWWEVLENLTLEGGVTIHATKDLKTAYFDKLNELGKLTEAIQCKTVDADEEQDFDKEFLSLDLAAKFVTSTESAIQHINTHSSRHTDAIVTENKANAEKFMKGVDSSGVYWNASTRFADGFRYGFGAEVGISTSKIHARGPVGLDGLVSYQYQIRG	not soluble
MSLGEPAQPGAKKYVLFDVDGTLIDAVDNQRRVWRVWAERYGLDPGEVYQVALRTRPMETFAQVAPDRDPQECLAALHELEDEDVRSGVYAAFDGASELLDALPPESWALVTSNYEHRVRGRFARTGLPVPSIIVDAASVEEGKPSPVPYLLAAKRLGADPQDCLVIEDAPSGVRSALRAGMTVWGVNAPVAVDGVHRHFGSLREAIRDILAVTSGTRPHEPRGSAAVEGHHHHHH	soluble
MAHHHHHHMTTLYDELYLLFDEYIVRNCKQPNTYESLFCKKEFVQFAKLHGTSVVVTSPKKEIKNKDEIIDELIYAFKLFAKYTSMCDFFSKNEEVDDINTIYLKFLLIPYILGVLCYETISMEIRSDRLKEAKLYFGEFINVVNVYKIAPVEDYLLDEGGEVNQAMNRRNIKVKRAKDEKKLQDFYDDMIKMNVKKGSSQNYNHLCFADHMEEEQIREIYLSLIKCKCLQTLNMMDLIDTEIEVLEMRNRQQVQDKQHQNGKPTQGTKDTHDGQPPHQNKHPKDGIKKPWLFTIKKNMPLADMTQMRNYYRDLVFTPAHNLPTISLEECAKIEMEYALKGEGMAPRSEEERRGNPKSGTIKGAAQNGTDDEEDYEKSSKEESEKELMDREWDDWKDMHQKGIGNKNRNVA	not soluble
GSEDTMDRINKDHDHTTSVASRFILADVITSTAFSNASGDINTYASSYIEYEVGVDNQLYYAEVRENEPSSSSTFNNSWNGIYSSLKNARIIIDQCGEGGRDHGNDVTRGMAEVMAAYNCALIADFFGDAPCSQAALVDEKGSPVYMTPKMDTQQEIYTQIISYLDDAIANLQKEDLADVTEQDFLYAGDADKWLKFAYGLKARYTMRLINRSSNKSADYEKVLDYVSKSFTSADDQAAFDIYDSNNINPFYGFYNSRAGFGASTSLGTKLLAYNDPRANRAFFTPIVDKKRSQVAANDPSLVPAPNGSPDQSTSKYGISAFVYAKTAPTLLMSYHELMFLKAEALCRLNRDAEDALKEAVVAGLLNAENSISIAIKELGSGLNTNSSEVITETSAGKYFDDVVKAKYAANPLQETMIQKYLAMWGASGEATETYNDFRRMKGLNENFITLTNPNNSSKFPLRYPYGNSDTAANPEVKAAYGNGDYVYSEPVWWAGGSR	soluble
MGSDKIHHHHHHMTLTTKTIHVIGASFAGLAFVDKYKDLNPDSQIILIDKESCPNYIPNGINQLFRGDIQDLSDAMWGRACLAAQIESNHRFIQAEVLAIEAPSNTLLLKDSQGRVFEEGYETLVCAMGASPQSHYIETSQTNKVLVTKYYEESQASLKLIEASQEVLVIGAGLIGLDLAYSLSLQGKRVKLIEAAERPDFYQTDAELIAPVMAEMSTHHVTFINNKRVTAIHEIEGKVVAHTEQGDTFQGDLAILAINFRPNTHLLQGQVACALDKTILVNENLQTSQANIYAIGDMVSLHFGILGMDYYTPLINQAMKTGQALALHLAGYPIPPLQTVKVLGSSHFDYYRASVGVTEEEAELYMDTCSYLYQNGDSKNLFWLKLIARKTDGILIGAQLLSKTNALVIANQLGQALALKVTDADLAFQDFLFLQGHSDLAYHLHEACLKLFEKRLRHED	not soluble
MASMTGGNNMGRGSMGAMDQEIGTVTDTKMDPRDFLQLLKINAEKAEKNLPLDQKRAGMEALCERFPRAEGVELTLTDLGGVPCIRQATDGAGAAHILYFHGGGYISGSPSTHLVLTTQLAKQSSATLWSLDYRLAPENPFPAAVDDCVAAYRALLKTAGSADRIIIAGDSAGGGLTTASMLKAKEDGLPMPAGLVMLSPFVDLTLSRWSNSNLADRDFLAEPDTLGEMSELYVGGEDRKNPLISPVYADLSGLPEMLIHVGSEEALLSDSTTLAERAGAAGVSVELKIWPDMPHVFQMYGKFVNAADISIKEICHWISARISKLAAALEHHHHHH	soluble
MAAVVKSVALAGRPTTPDRVHEVLGRSMLVDGLDIVLDLTRSGGSYLVDAITGRRYLDMFTFVASSALGMNPPALVDDREFHAELMQAALNKPSNSDVYSVAMARFVETFARVLGDPALPHLFFVEGGALAVENALKAAFDWKSRHNQAHGIDPALGTQVLHLRGAFHGRSGYTLSLTNTKPTITARFPKFDWPRIDAPYMRPGLDEPAMAALEAEALRQARAAFETRPHDIACFVAEPIQGEGGDRHFRPEFFAAMRELCDEFDALLIFDEVQTGCGLTGTAWAYQQLDVAPDIVAFGKKTQVCGVMAGRRVDEVADNVFAVPSRLASTWGGNLTDMVRARRILEVIEAEGLFERAVQHGKYLRARLDELAADFPAVVLDPRGRGLMCAFSLPTTADRDELIRQLWQRAVIVLPAGADTVRFRPPLTVSTAEIDAAIAAVRSALPVVT	soluble
MSLEKKTLLTHCPDAPGLISKITNICYKHQLNIIHNNEFVDNASGHFFMRTELEGYFNDATLLADLDHALPQGTRRKLISSSRKRIVILVTKEAHCLGDILMKNYDGSLDVDIAAVVGNYDTLQRLTERFDIPYHCVSHEGLSREAHEQALLDVIDQYQPDYLVLAKYMRVLTPAFVERFHHKIINIHHSFLPAFIGAKPYQQAYERGVKIIGATAHFVTNDLDEGPIIKQDVIPVDHTFSAQDMAQAGRDVEKNVLSKALNKVLNDHVFVYGNKTVILERHHHHHH	soluble
